Measured values published in patent US20190352642A1.

Molecular target: complement C1q (in Hamster complement, Abcham Ab155111) (hamster)
Assay: cell-based or functional assay

| Substance | complement-induced hemolysis of IgG coupled RBC (OD 540 nm, against 100% hemolysis by Tween-20); 6 nm activated IgG (about 5x10^6 molecules per RBC) [%] | complement-induced hemolysis of IgG coupled RBC; 1.2 nm activated IgG (about 1x10^6 molecules per RBC) [%] | complement-induced hemolysis when about 1-2x10^4 IgG molecules were bound per one RBC (not shown) [%] | complement-induced hemolysis of Fc coupled RBC (OD 540 nm, against 100% hemolysis by Tween-20); 6 nm activated Fc (about 5x10^6 molecules per RBC) [%] | complement-induced hemolysis of Fc coupled RBC; 1.2 nm activated Fc (about 1x10^6 molecules per RBC) [%] |
| --- | --- | --- | --- | --- | --- |
| h-IgG (Sigma Aldrich), chemically coupled to human red blood cells (antibody) | 90 | 30 to 40 | 85 to 95 |  |  |
| h-IgG Fc fragment (Sigma Aldrich), chemically coupled to human red blood cells |  |  |  | 80 | 30 to 40 |
